Experimental findings from patent US11448657B2, “Methods and kits for assessing Heparanase procoagulant activity, compositions comprising Heparanase, and methods for the treatment of coagulation-related disorders” (RAMBAM MED-TECH, priority 2011, dated 2022) are described below.

Substitutions are numbered along the chain they refer to. Entries after “also recorded” stand apart in the source; their conditions may differ. Ends that are not written are not given here.

Data set [1] has as its target T1, TF/heparanase complex (Homo sapiens, UniProt Q9Y251).
T1 construct: endogenous in cells; host or cells: ICR mice in vivo (TF endogenous)
T1 sequence (Q9Y251 36-543): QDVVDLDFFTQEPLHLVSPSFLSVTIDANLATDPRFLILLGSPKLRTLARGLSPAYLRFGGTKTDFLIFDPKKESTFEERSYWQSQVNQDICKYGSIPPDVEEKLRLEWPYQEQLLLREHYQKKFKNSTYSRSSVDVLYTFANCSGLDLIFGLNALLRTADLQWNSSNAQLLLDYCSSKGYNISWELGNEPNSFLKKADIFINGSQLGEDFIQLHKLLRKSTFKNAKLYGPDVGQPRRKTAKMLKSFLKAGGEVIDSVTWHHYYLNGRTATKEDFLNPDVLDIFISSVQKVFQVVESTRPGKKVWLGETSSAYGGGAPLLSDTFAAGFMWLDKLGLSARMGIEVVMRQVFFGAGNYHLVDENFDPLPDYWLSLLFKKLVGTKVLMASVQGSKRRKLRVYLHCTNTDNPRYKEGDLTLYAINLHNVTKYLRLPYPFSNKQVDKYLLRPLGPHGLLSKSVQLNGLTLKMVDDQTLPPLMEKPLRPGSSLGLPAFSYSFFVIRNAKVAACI
In words: TF/heparanase inhibitory peptides in heparanase-injected ICR mice (TAT by ELISA). The format is in vivo. To be noted: peptide intra-peritoneal half an hour after heparanase, blood after 4 hours. As for the experimental part: FIG. 23B. Heparanase was injected intra-peritoneal to ICR mice. Inhibitory peptides to TF/heparanase complex (number 5, 6, 21) were injected intra-peritoneal half an hour after heparanase. Four hours later the blood was drawn and Thrombin-antithrombin (TAT) level was measured by ELISA.
Methods: ICR mice, heparanase knock-out mice and heparanase over-expression mice were studied. Sepsis was induced by intra-peritoneal injection of lipopolysaccharides (LPS). Inhibitory peptides to TF/heparanase complex (number 11, 22, 5, 6, 7, 12, and 21 [SEQ IDs: 1-7]) were injected intra-peritoneal half an hour after heparanase or LPS. After 4 hours blood was obtained via sub-mandibular plexus puncture followed by mice sacrificing. Levels of thrombin-antithrombin (TAT), D-Dimer and IL-6 were tested using ELISA. Western blot to plasma factor VII and immunostaining of fibrinogen in lung, kidney and spleen were performed.
In general terms: ELISA stands for enzyme-linked immunosorbent assay.

The target in data set [2] is T2, TF/heparanase complex (Homo sapiens, UniProt P13726+Q9Y251, DEL111-157/INS109GSGSG).
T2 construct: comprised of the 8 kDa and 50 kDa heparanase heterodimer (8+50); purchased American Diagnostica (Stanford, Conn., USA) for TF and factor VIIa; host or cells: heparanase GS3 made in house: conditioned medium of baculovirus-infected cells
T2 sequence (P13726 33-295, stated change not applied, one chain of several): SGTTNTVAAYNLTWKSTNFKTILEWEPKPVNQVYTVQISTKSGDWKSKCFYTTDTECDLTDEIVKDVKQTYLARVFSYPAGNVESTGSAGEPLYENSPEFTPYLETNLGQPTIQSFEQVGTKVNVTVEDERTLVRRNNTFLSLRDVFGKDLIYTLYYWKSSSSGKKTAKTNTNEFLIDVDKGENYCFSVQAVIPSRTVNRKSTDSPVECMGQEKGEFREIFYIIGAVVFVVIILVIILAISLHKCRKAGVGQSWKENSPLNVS
The data set can be described thus: Inhibition of heparanase procoagulant activity in the factor Xa generation assay. To be noted: for procoagulant effect of heparanase on Xa level: co-addition of peptide with heparanase, FIG. 23A; for procoagulant effect induced by heparanase (Xa level): peptide 25 μg/ml (15 μM), heparanase 1.5 μM, FIG. 26. The format is biochemical. As for the experimental part:
FIG. 23A. Factor Xa levels was evaluated by chromogenic substrate in an in-vitro assay including purified proteins of tissue factor (TF), factor VIIa, factor X and assay buffer.
FIG. 26. Factor Xa levels was evaluated by chromogenic substrate in an in-vitro assay including lipidated TF (0.004 μM), factor VIIa (0.04 μM) and factor X (1.4 μM). The Xa level was studied by a chromogenic substrate (1 mM).
(§1) Following preliminary experiments to quantify the appropriate protein doses, we performed a basic experiment of factor Xa generation in the following manner: the concentrations mentioned are the final concentrations. Lipidated recombinant human TF (0.004 μM, […]), recombinant human factor VIIa (0.04 μM) and plasma-derived human factor X (1.4 μM) were incubated in 50 μL assay buffer (0.06 M Tris, 0.04 M NaCl, 2 mM CaCl 2, 0.04% bovine serum albumin, pH 8.4) to a total volume of 125 μL in a 96-well sterile plate. After 15 min at 37° C., chromogenic substrate for factor Xa was added (1 mM). After 20 min, the reaction was stopped with 50 μL of glacial acetic acid and the level of factor Xa generation was determined using an enzyme-linked immunosorbent assay (ELISA) plate reader (Power Wave XS, BIO-TEK, VT, USA). In order to visualize the increased production of factor Xa by western blotting, the experiment was repeated with 7 μM factor X. After 15 min at 37° C., half of the reaction volume was subjected to blotting using monoclonal anti-human factor X/Xa heavy chain antibody.
The coagulation assay included the peptides and the following components: lipidated TF (0.004 μM), factor VIIa (0.04 μM) and factor X (1.4 μM). The Xa level was studied by a chromogenic substrate (1 mM).

Data set [3] deals with T2, TF/heparanase complex. The data set can be described thus: Inhibition of heparanase procoagulant activity in the thrombin generation assay. To be noted: for heparanase procoagulant activity (thrombin generation): inhibitor added to the thrombin generation assay with heparanase. The format is biochemical. As for the experimental part: FIG. 6B. Heparanase procoagulant activity is attenuated by TFPI and TFPI-2. Same as FIG. 1D, except that recombinant human TFPI and TFPI-2 were added prior to heparanase addition. The mean value±SD of three independent experiments is shown.
FIG. 6C. Heparanase procoagulant activity is abrogated by an anti-Xa derivative.
In order to verify that factor Xa produced in the presence of heparanase is active, thrombin generation, the next step in the coagulation cascade, was examined. The experiment described above (FIG. 1A) was repeated and plasma-derived human prothrombin (222 μM) was added following the addition of factor X. After 15 minutes at 37° C., chromogenic substrate for thrombin was added (1 mM). In the presence of heparanase, thrombine generation was increased (FIG. 1D).

A short description of data set [4]: Water solubility of the peptides. Type of data set: physicochemical.
The target in the next data set is T3, TF-factor VIIa complex (Homo sapiens, UniProt P13726).
T3 construct: purchased American Diagnostica (Stanford, Conn., USA)
T3 sequence (P13726 33-295): as the sequence (P13726 33-295, stated change not applied, one chain of several) above
T3 sequence (P08709 61-212 partner limits assumed): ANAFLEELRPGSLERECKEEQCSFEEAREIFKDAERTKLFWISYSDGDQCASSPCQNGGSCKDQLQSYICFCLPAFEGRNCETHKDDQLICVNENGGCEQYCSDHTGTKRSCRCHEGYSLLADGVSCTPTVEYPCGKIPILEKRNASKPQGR
T3 sequence (P08709 213-466 partner limits assumed): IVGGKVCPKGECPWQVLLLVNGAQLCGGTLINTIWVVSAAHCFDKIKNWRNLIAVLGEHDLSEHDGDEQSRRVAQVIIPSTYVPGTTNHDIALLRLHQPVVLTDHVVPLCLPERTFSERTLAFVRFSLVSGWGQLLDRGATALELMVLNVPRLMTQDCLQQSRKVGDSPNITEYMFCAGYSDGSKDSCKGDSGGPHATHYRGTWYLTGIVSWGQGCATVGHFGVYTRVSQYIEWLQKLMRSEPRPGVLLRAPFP
In words: Activated factor X generation assay with purified TF, factor VIIa and factor X (chromogenic substrate). The format is biochemical. The settings on record: overnight serum-free medium of 293 HEK cells over-expressing heparanase species, compared to mock. As to the method:
FIG. 1A. Recombinant human TF, recombinant human factor VIIa, and plasma-derived human factor X were incubated (15 min, 37° C.) in a total assay volume of 125 μL. Chromogenic substrate for the detection of factor Xa was then added (final concentration 1 mM). Recombinant active heparanase GS3 (Hepa) was added prior to the addition of the coagulation factors. The mean value±SD of three independent experiments in shown. […]
FIG. 1C. […] The mean value of two experiments is shown. Note a 2-fold increase in coagulation activity when the medium contained heparanase or its derivatives.
as §1
The factor Xa generation assay was performed as described in the Design and Methods section with increasing doses of recombinant human heparanase (GS3) added prior to the addition of the coagulation factors. […] It should be noted that factor X is composed of two polypeptide chains, a heavy chain with a molecular weight of 38 kDa and a light chain with a molecular weight of 18 kDa joined by a dipeptide Arg-Arg. The factor VIIa-TF complex activates the conversion of factor X to factor Xa by cleaving the heavy chain to a 33 kDa peptide. […] In order to exclude contamination of the heparanase preparation during the routine procedure of purification described in the Design and Methods section, the inventors tested the effect of overnight serum-free without phenol medium of 293 HEK cells over-expressing heparanase and its derivatives compared to mock. The proteins were further purified from the culture medium and analyzed. Similar quantities of proteins were obtained from the culture media.

Take NANNFYTWEAC [Peptide 21]: in the data set with TF/heparanase complex [1], the “procoagulant effect of heparanase (TAT level)” value was “markedly decreased heparanase effect”. The “procoagulant effect of heparanase on Xa level” value with TF/heparanase complex [2] was “abolished the procoagulant effect of heparanase”.

Consider RYYYDRYTQSCRQF [Peptide 12], for which the “procoagulant effect of heparanase on Xa level” value with TF/heparanase complex [2] was “abolished the procoagulant effect of heparanase”. In the case of “Ac-Ile Cys Leu Leu Pro Leu Asp Tyr Gly Pro Cys Arg Ala Leu (Ac-ICLLPLDYGPCRAL; cysteine pairing not given here) [Peptide 5-Ac]”, in the data set with TF/heparanase complex [2], the “procoagulant effect induced by heparanase (Xa level)” value (“procoagulant effect induced” for short) was “inhibited the procoagulant effect induced by heparanase”.

With “TFPI: recombinant human tissue factor pathway inhibitor [reference compound]”, in the data set with TF/heparanase complex [3], the “heparanase procoagulant activity (thrombin generation)” value (“heparanase procoagulant activity” below) is reported as “attenuated the effect; also recorded: mildly attenuated thrombin generation but failed to abolish the procoagulant effect of heparanase”.

With “ICLLPLDYGPCRAL (cysteine pairing not given here) [Peptide 5]”, in the data set with TF/heparanase complex [1], the “procoagulant effect of heparanase (TAT level)” value is given as “markedly decreased heparanase effect”. Besides, in the data set with TF/heparanase complex [2], the “procoagulant effect of heparanase on Xa level” value is “abolished the procoagulant effect of heparanase” and the “procoagulant effect induced” value is listed as “inhibited the procoagulant effect induced by heparanase”. The like results for “AEICLLPLDYGPCR (cysteine pairing not given here) [Peptide 6]” were, in that order, “completely abolished the procoagulant effect of heparanase”, “abolished the procoagulant effect of heparanase” and “inhibited the procoagulant effect induced by heparanase”.

Consider “Ac-AEICLLPLDYGPCR (cysteine pairing not given here) [Peptide 6-Ac]”, for which the “procoagulant effect induced” value at TF/heparanase complex [2] is given as “inhibited the procoagulant effect induced by heparanase”. As to `O=C(NC[C@H]1CN(c2ccc(N3CCOCC3=O)cc2)C(=O)O1)c1ccc(Cl)s1` [Rivaroxaban, reference compound], the “heparanase procoagulant activity” value on TF/heparanase complex [3] is on record as “abolished the effect of heparanase”; on TF/heparanase complex [3] (listed as rivaroxaban) it was “abolished the procoagulant effect of heparanase”. On to Ac-NNAEICLLPLDYGP [Peptide 7-Ac], for which, in data set [4], the “water solubility compared to non-acetylated counterpart” value is given as “more water soluble than their corresponding non acetylated counterparts”. NNAEICLLPLDYGP [Peptide 7]: in the data set with TF/heparanase complex [2], the “procoagulant effect of heparanase on Xa level” value is recorded as “abolished the procoagulant effect of heparanase” and the “procoagulant effect induced” value was “inhibited the procoagulant effect induced by heparanase”.

B1: TFPI-2: recombinant human tissue factor pathway inhibitor 2, purchased from R&D (protein, UniProt P48307 23-235, looked up)
Tissue factor pathway …: DAAQEPTGNNAEICLLPLDYGPCRALLLRYYYDRYTQSCRQFLYGGCEGNANNFYTWEACDDACWRIEKVPKVCRLQVSVDDQCEGSTEKYFFNLSSMTCEKFFSGGCHRNRIENRFPDEATCMGFCAPKKIPSFCYSPKDEGLCSANVTRYYFNPRYRTCDAFTYTGCGGNDNNFVSREDCKRACAKALKKKKKMPKLRFASRIRKIRKKQF
Turning to B1, the “heparanase procoagulant activity” value with TF/heparanase complex [3] is on record as “attenuated the effect; also recorded: mildly attenuated thrombin generation but failed to abolish the procoagulant effect of heparanase”. Further, in the data set with TF/heparanase complex [3] (thrombin generation with heparanase), the “inhibitory potency compared to TFPI in the presence of heparanase” value was “more effective inhibitor than TFPI; also recorded: more potent than TFPI”.

B2: double mutant inactive heparanase: heparanase mutated at Glu225 and Glu343, critical for the enzyme catalytic activity (protein)
chain: T1 sequence (Q9Y251 36-543) with E190A, E308A
In the case of B2, the “increase in factor Xa levels” value with TF-factor VIIa complex is on record as “increased factor Xa levels”.
